± gives the standard deviation of the averaged measurements.
B1: library; a variant is named by its letters at N, in order (parent)
chain: GCUGUCACCGGUGUAUUACCCUAGUGGUCGACCGGUCUGAUGAGUCUNNNNNNAGACGAAACAGC

Legend:
[1] = variants of: B1; test: normalized RNA/DNA level with ligand (relative to sTRSVctl = 100) (log10 (% of sTRSVctl)); ligand: hypoxanthine (xanthine aptamer); higher = less ribozyme self-cleavage, higher mRNA level; conditions: ligand concentration (+) RNA-Seq: 5 mM, HEK293T, reporter: mCherry (pCS4076), ligand present: yes
Method in brief: (§1)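 Ribozyme switch library plasmids with mCherry reporters (eGFP in certain ligand experiments) went into HEK293T cells at 4 µg per 6-well well. Where ligand was used, it was applied 1 h before transfection, and total RNA was extracted with EDTA 72 h later for reverse transcription, amplification, barcoding and sequencing. RNA level is the RNA-to-DNA read ratio normalized to a spiked-in non-cleaving sequence or to the leading sequences, then scaled and log-transformed. Scaling was ×100 with log10, the leading set comprised 25 sequences, and the cutoff was ≥100 DNA reads.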

[2] = variants of: B1; test: normalized RNA/DNA level without ligand (relative to sTRSVctl = 100) (log10 (% of sTRSVctl)); ligand: hypoxanthine (xanthine aptamer); higher = less ribozyme self-cleavage, higher mRNA level; conditions: HEK293T, reporter: mCherry (pCS4076), ligand present: no
Method in brief: as §1

GCUGUCACCGGUGUAUUACCCUAGUGGUCGACCGGUCUGAUGAGUCUAUACUCAGACGAAACAGC
normalized RNA/DNA level with ligand (log10) [1]: 1.93 ± 0.05 | normalized RNA/DNA level without ligand (log10) [2]: 1.96 ± 0.071

GCUGUCACCGGUGUAUUACCCUAGUGGUCGACCGGUCUGAUGAGUCUUCCGCUAGACGAAACAGC
normalized RNA/DNA level with ligand (log10) [1]: 1.94 ± 0.055 | normalized RNA/DNA level without ligand (log10) [2]: 1.944 ± 0.0031

GCUGUCACCGGUGUAUUACCCUAGUGGUCGACCGGUCUGAUGAGUCUGCUACUAGACGAAACAGC
normalized RNA/DNA level with ligand (log10) [1]: 1.95 ± 0.059 | normalized RNA/DNA level without ligand (log10) [2]: 1.89 ± 0.026

GCUGUCACCGGUGUAUUACCCUAGUGGUCGACCGGUCUGAUGAGUCUGGUUCGAGACGAAACAGC
normalized RNA/DNA level with ligand (log10) [1]: 1.92 ± 0.063 | normalized RNA/DNA level without ligand (log10) [2]: 1.69 ± 0.051

GCUGUCACCGGUGUAUUACCCUAGUGGUCGACCGGUCUGAUGAGUCUGCAGGCAGACGAAACAGC
normalized RNA/DNA level with ligand (log10) [1]: 1.861 ± 0.0028 | normalized RNA/DNA level without ligand (log10) [2]: 1.65 ± 0.036

GCUGUCACCGGUGUAUUACCCUAGUGGUCGACCGGUCUGAUGAGUCUGCCAGUAGACGAAACAGC
normalized RNA/DNA level with ligand (log10) [1]: 1.92 ± 0.06 | normalized RNA/DNA level without ligand (log10) [2]: 1.79 ± 0.046

GCUGUCACCGGUGUAUUACCCUAGUGGUCGACCGGUCUGAUGAGUCUAGUGAAAGACGAAACAGC
normalized RNA/DNA level with ligand (log10) [1]: 1.9 ± 0.025 | normalized RNA/DNA level without ligand (log10) [2]: 1.66 ± 0.059

GCUGUCACCGGUGUAUUACCCUAGUGGUCGACCGGUCUGAUGAGUCUGAGGAUAGACGAAACAGC
normalized RNA/DNA level with ligand (log10) [1]: 1.955 ± 0.019 | normalized RNA/DNA level without ligand (log10) [2]: 1.7 ± 0.074

GCUGUCACCGGUGUAUUACCCUAGUGGUCGACCGGUCUGAUGAGUCUUCCCUAAGACGAAACAGC
normalized RNA/DNA level with ligand (log10) [1]: 1.92 ± 0.033 | normalized RNA/DNA level without ligand (log10) [2]: 1.79 ± 0.043

GCUGUCACCGGUGUAUUACCCUAGUGGUCGACCGGUCUGAUGAGUCUAACAAAAGACGAAACAGC
normalized RNA/DNA level with ligand (log10) [1]: 1.91 ± 0.035 | normalized RNA/DNA level without ligand (log10) [2]: 1.785 ± 0.017

GCUGUCACCGGUGUAUUACCCUAGUGGUCGACCGGUCUGAUGAGUCUACUUGGAGACGAAACAGC
normalized RNA/DNA level with ligand (log10) [1]: 1.88 ± 0.029 | normalized RNA/DNA level without ligand (log10) [2]: 1.38 ± 0.068

GCUGUCACCGGUGUAUUACCCUAGUGGUCGACCGGUCUGAUGAGUCUCGGCGUAGACGAAACAGC
normalized RNA/DNA level with ligand (log10) [1]: 1.929 ± 0.017 | normalized RNA/DNA level without ligand (log10) [2]: 1.91 ± 0.06

GCUGUCACCGGUGUAUUACCCUAGUGGUCGACCGGUCUGAUGAGUCUGUCUCAAGACGAAACAGC
normalized RNA/DNA level with ligand (log10) [1]: 1.965 ± 0.019 | normalized RNA/DNA level without ligand (log10) [2]: 1.943 ± 0.0073

GCUGUCACCGGUGUAUUACCCUAGUGGUCGACCGGUCUGAUGAGUCUACGUACAGACGAAACAGC
normalized RNA/DNA level with ligand (log10) [1]: 1.9 ± 0.041 | normalized RNA/DNA level without ligand (log10) [2]: 1.55 ± 0.036

GCUGUCACCGGUGUAUUACCCUAGUGGUCGACCGGUCUGAUGAGUCUGAUCCUAGACGAAACAGC
normalized RNA/DNA level with ligand (log10) [1]: 1.979 ± 0.014 | normalized RNA/DNA level without ligand (log10) [2]: 1.948 ± 0.012

GCUGUCACCGGUGUAUUACCCUAGUGGUCGACCGGUCUGAUGAGUCUACCUCAAGACGAAACAGC
normalized RNA/DNA level with ligand (log10) [1]: 1.904 ± 0.0082 | normalized RNA/DNA level without ligand (log10) [2]: 1.89 ± 0.027

GCUGUCACCGGUGUAUUACCCUAGUGGUCGACCGGUCUGAUGAGUCUCAGCCGAGACGAAACAGC
normalized RNA/DNA level with ligand (log10) [1]: 1.947 ± 0.0075 | normalized RNA/DNA level without ligand (log10) [2]: 1.88 ± 0.071

GCUGUCACCGGUGUAUUACCCUAGUGGUCGACCGGUCUGAUGAGUCUAAUAUCAGACGAAACAGC
normalized RNA/DNA level with ligand (log10) [1]: 1.95 ± 0.055 | normalized RNA/DNA level without ligand (log10) [2]: 1.945 ± 0.0067

GCUGUCACCGGUGUAUUACCCUAGUGGUCGACCGGUCUGAUGAGUCUCAAAGCAGACGAAACAGC
normalized RNA/DNA level with ligand (log10) [1]: 1.956 ± 0.01 | normalized RNA/DNA level without ligand (log10) [2]: 1.77 ± 0.021

GCUGUCACCGGUGUAUUACCCUAGUGGUCGACCGGUCUGAUGAGUCUAUGUCAAGACGAAACAGC
normalized RNA/DNA level with ligand (log10) [1]: 1.95 ± 0.08 | normalized RNA/DNA level without ligand (log10) [2]: 1.741 ± 0.0086

GCUGUCACCGGUGUAUUACCCUAGUGGUCGACCGGUCUGAUGAGUCUACCACGAGACGAAACAGC
normalized RNA/DNA level with ligand (log10) [1]: 1.91 ± 0.032 | normalized RNA/DNA level without ligand (log10) [2]: 1.67 ± 0.023

GCUGUCACCGGUGUAUUACCCUAGUGGUCGACCGGUCUGAUGAGUCUAUUCUUAGACGAAACAGC
normalized RNA/DNA level with ligand (log10) [1]: 1.94 ± 0.055 | normalized RNA/DNA level without ligand (log10) [2]: 1.93 ± 0.023

GCUGUCACCGGUGUAUUACCCUAGUGGUCGACCGGUCUGAUGAGUCUUGCAUUAGACGAAACAGC
normalized RNA/DNA level with ligand (log10) [1]: 1.981 ± 0.01 | normalized RNA/DNA level without ligand (log10) [2]: 1.88 ± 0.018

GCUGUCACCGGUGUAUUACCCUAGUGGUCGACCGGUCUGAUGAGUCUCUACCUAGACGAAACAGC
normalized RNA/DNA level with ligand (log10) [1]: 1.96 ± 0.092 | normalized RNA/DNA level without ligand (log10) [2]: 1.9389 ± 0.0018

GCUGUCACCGGUGUAUUACCCUAGUGGUCGACCGGUCUGAUGAGUCUGGAACAAGACGAAACAGC
normalized RNA/DNA level with ligand (log10) [1]: 1.942 ± 0.0069 | normalized RNA/DNA level without ligand (log10) [2]: 1.764 ± 0.0065

GCUGUCACCGGUGUAUUACCCUAGUGGUCGACCGGUCUGAUGAGUCUAGCUCAAGACGAAACAGC
normalized RNA/DNA level with ligand (log10) [1]: 1.998 ± 0.00082 | normalized RNA/DNA level without ligand (log10) [2]: 1.895 ± 0.011

GCUGUCACCGGUGUAUUACCCUAGUGGUCGACCGGUCUGAUGAGUCUAGGAUUAGACGAAACAGC
normalized RNA/DNA level with ligand (log10) [1]: 1.934 ± 0.0076 | normalized RNA/DNA level without ligand (log10) [2]: 1.83 ± 0.075

GCUGUCACCGGUGUAUUACCCUAGUGGUCGACCGGUCUGAUGAGUCUAUUCCAAGACGAAACAGC
normalized RNA/DNA level with ligand (log10) [1]: 1.92 ± 0.02 | normalized RNA/DNA level without ligand (log10) [2]: 1.86 ± 0.042

GCUGUCACCGGUGUAUUACCCUAGUGGUCGACCGGUCUGAUGAGUCUCGGCUCAGACGAAACAGC
normalized RNA/DNA level with ligand (log10) [1]: 2.04 ± 0.061 | normalized RNA/DNA level without ligand (log10) [2]: 2.037 ± 0.017

GCUGUCACCGGUGUAUUACCCUAGUGGUCGACCGGUCUGAUGAGUCUGCGUUUAGACGAAACAGC
normalized RNA/DNA level with ligand (log10) [1]: 1.965 ± 0.002 | normalized RNA/DNA level without ligand (log10) [2]: 1.74 ± 0.11

GCUGUCACCGGUGUAUUACCCUAGUGGUCGACCGGUCUGAUGAGUCUGGCACCAGACGAAACAGC
normalized RNA/DNA level with ligand (log10) [1]: 1.92 ± 0.06 | normalized RNA/DNA level without ligand (log10) [2]: 1.85 ± 0.021

GCUGUCACCGGUGUAUUACCCUAGUGGUCGACCGGUCUGAUGAGUCUGUGGAGAGACGAAACAGC
normalized RNA/DNA level with ligand (log10) [1]: 1.79 ± 0.028 | normalized RNA/DNA level without ligand (log10) [2]: 1.28 ± 0.1

GCUGUCACCGGUGUAUUACCCUAGUGGUCGACCGGUCUGAUGAGUCUCAGUUGAGACGAAACAGC
normalized RNA/DNA level with ligand (log10) [1]: 1.93 ± 0.046 | normalized RNA/DNA level without ligand (log10) [2]: 1.801 ± 0.015

GCUGUCACCGGUGUAUUACCCUAGUGGUCGACCGGUCUGAUGAGUCUUGUGGGAGACGAAACAGC
normalized RNA/DNA level with ligand (log10) [1]: 1.93 ± 0.014 | normalized RNA/DNA level without ligand (log10) [2]: 1.64 ± 0.035

GCUGUCACCGGUGUAUUACCCUAGUGGUCGACCGGUCUGAUGAGUCUCGGCCUAGACGAAACAGC
normalized RNA/DNA level with ligand (log10) [1]: 2.03 ± 0.021 | normalized RNA/DNA level without ligand (log10) [2]: 1.93 ± 0.027

GCUGUCACCGGUGUAUUACCCUAGUGGUCGACCGGUCUGAUGAGUCUUACUCUAGACGAAACAGC
normalized RNA/DNA level with ligand (log10) [1]: 1.915 ± 0.0075 | normalized RNA/DNA level without ligand (log10) [2]: 1.91 ± 0.026

GCUGUCACCGGUGUAUUACCCUAGUGGUCGACCGGUCUGAUGAGUCUCGCGGAAGACGAAACAGC
normalized RNA/DNA level with ligand (log10) [1]: 2 ± 0.046 | normalized RNA/DNA level without ligand (log10) [2]: 1.863 ± 0.0046

GCUGUCACCGGUGUAUUACCCUAGUGGUCGACCGGUCUGAUGAGUCUGGAUUAAGACGAAACAGC
normalized RNA/DNA level with ligand (log10) [1]: 1.94 ± 0.04 | normalized RNA/DNA level without ligand (log10) [2]: 1.83 ± 0.057

GCUGUCACCGGUGUAUUACCCUAGUGGUCGACCGGUCUGAUGAGUCUGGGAUCAGACGAAACAGC
normalized RNA/DNA level with ligand (log10) [1]: 1.94 ± 0.075 | normalized RNA/DNA level without ligand (log10) [2]: 1.861 ± 0.018

GCUGUCACCGGUGUAUUACCCUAGUGGUCGACCGGUCUGAUGAGUCUGUCAUAAGACGAAACAGC
normalized RNA/DNA level with ligand (log10) [1]: 1.957 ± 0.013 | normalized RNA/DNA level without ligand (log10) [2]: 1.806 ± 0.013

GCUGUCACCGGUGUAUUACCCUAGUGGUCGACCGGUCUGAUGAGUCUCUAUACAGACGAAACAGC
normalized RNA/DNA level with ligand (log10) [1]: 1.954 ± 0.014 | normalized RNA/DNA level without ligand (log10) [2]: 1.835 ± 0.0098

GCUGUCACCGGUGUAUUACCCUAGUGGUCGACCGGUCUGAUGAGUCUUCAGUGAGACGAAACAGC
normalized RNA/DNA level with ligand (log10) [1]: 1.93 ± 0.061 | normalized RNA/DNA level without ligand (log10) [2]: 1.77 ± 0.067

— the supplement of paper PMC6757056
